Test results taken from article PMC8358037 (Communications Biology, 2021).
Substitutions are numbered along the chain they refer to.

B1: anti-CROP gastrobody G9 (His6-Thrombin site-SpyTag003-gastrobody) (designed binder)
chain: DFVLDNEGNPLENGGTYYILSHPDLFGGIRAAPTGNERCPLTVVQSLYLFDKGIGTIISSPYRIRFIAEGHPLSLKFDSFAVIMLCVGIPTEWSVVEDLPEGPAVKIGENKDAMDGWFRLERVSDDEFNNYKLVFCPQQAEDDKCGDIGISIDHDDGTRRLVVSKNKPLVVQFQKLDKESL
B2: anti-CROP gastrobody T42 (His6-Thrombin site-SpyTag003-gastrobody) (designed binder)
chain: B1 chain with H22V, D24H, L25Q, L47R, Y48N, L49K, F50W
B3: anti-CROP gastrobody G22 (His6-Thrombin site-SpyTag003-gastrobody) (designed binder)
chain: B1 chain with H22L, P23Q, D24N, L25R, L47H, Y48D, L49F, F50M

These binders were tested against combined repetitive oligopeptide domain of C. difficile toxin A (AviTag-His6-CROP) (Clostridium difficile, UniProt P16154 2304-2710) (assay: SPR). Conditions: both partners purified.
For B1, the Kd was 4.1 µM. Work on B2 yielded a Kd of 6.2 µM. B3 showed a Kd of ~50 µM.
